Experimental data reported in patent US20140004122A1, “METHODS FOR TREATING OR PREVENTING CHOLESTEROL RELATED DISORDERS” (AMGEN INC., priority 2011, published 2014).
Substitutions are numbered along the chain they refer to.

B1: 3B6: anti-PCSK9 antibody; light/heavy variable region SEQ ID NO 46/60 (antibody, listed as Homo sapiens, V domains shown)
VH: QVQLVQSGAEVKKPGASVKVSCKASGYTFTSYGISWVRQAPGQGLEWMGWISTYNGNTNYAQKVQGRVTMTTDTSTSTAYMELRSLRSDDTAVYYCARGYTRDYWGQGTLVTVSS
VL: QPVLTQPLFASASLGASVTLTCTLSSGYSSYEVDWYQQRPGKGPRFVMRVDTGGIVGSKGEGIPDRFSVLGSGLNRYLTIKNIQEEDESDYHCGADHGSGTNFVVVFGGGTKLTVL
B2: 25A7: anti-PCSK9 antibody; light/heavy variable region SEQ ID NO 15/58; 25A7.3 referred to as 25A7 (antibody, listed as Homo sapiens, V domains shown)
VH: B1 VH with T30P, T53A, Q62E, V64L, L83V, Y94F, T101V, R102M, Y104V, L110T
VL: QSALTQPASVSGSPGQSITISCTGTSSDVGRYNSVSWYQHHPGKAPKVMIYEVSNRPSGVSTRFSGSKSGNTASLTISGLQAEDEADYYCSSYTSSSVVFGGGTKLTVL
B3: 27B2: anti-PCSK9 antibody; light/heavy variable region SEQ ID NO 13/87 (antibody, listed as Homo sapiens, V domains shown)
VH: QVQLQESGPGLVKPSQTLSLTCTVSGGSISSGGYYWSWIRQHPGKGLEWIGYIYNSGSTYYNPSLKSRVTISVDTSKNQFSLKLSSVTAADTAVYYCAREDTAMVPYFDYWGQGTLVTVSS
VL: QSVLTQPPSVSGAPGQRVTISCTGSSSNIGAHYDVHWYQQVPGTAPKLLIYGNTYRPSGVPDRFSGSKSGTSASLAITGLQAEDEADYYCQSYDNSLSGVVFGGGTKLTVL
B4: 13H1: anti-PCSK9 antibody; light/heavy variable region SEQ ID NO 28/91 (antibody, listed as Homo sapiens, V domains shown)
VH: QVQLQQSGPGLVKPSQTLSLTCAISGDSVSSNSAAWNWIRQSPSRGLEWLGRTYYRSKWYKNYSVSVKSRITINPDTSKNQFSLQLNSVTPGDTAVYYCARGGPTAAFDYWGQGTLVTVSS
VL: LSALTQPASVSGSPGQSITISCTGTSSDVGNYNLVSWYQQYSGKAPKLMIYEVSKRPSGVSNRFSGSKSGNTASLTISGLQAEDEADYYCCSYAGSSTLVFGGGTKLTVL
B5: 13B5: anti-PCSK9 antibody; light/heavy variable region SEQ ID NO 42/69 (antibody, listed as Homo sapiens, V domains shown)
VH: EVQLLESGGGLVQPGGSLRLSCAASGFTFSSYAMSWVRQAPGKGLEWVSTISGSGGRTYYADSVKGRFTISRDNSKNTLYLQMNSLRAEDTAVYYCAKEVGSPFDYWGQGTLVTVSS
VL: QSVLTQPPSVSAAPGQKVTISCSGSNSNIGNNYVSWYQQLPGTAPKLLIYDNNKRPSGIPDRFSGSNSGTSATLGITGLQTGDEADYYCGTWDSSLSAVVFGGGTKLTVL
B6: 16F12: anti-PCSK9 antibody; light/heavy variable region SEQ ID NO 35/79 (antibody, listed as Homo sapiens, V domains shown)
VH: QVHLVESGGGVVQPGRSLRLSCAASGFTFNSFGMHWVRQAPGKGLEWVALIWSDGSDEYYADSVKGRFTISRDNSKNTLYLQMNSLRAEDTAVYYCARAIAALYYYYGMDVWGQGTTVTVSS
VL: B5 VL with N26S, Y33F, N52Y, N67K, V99Y, G103T, K106R, L107V
B7: 21B12 IgG2: human 21B12 IgG2 antibody produced from transfected cells (antibody)
heavy: QVQLVQSGAEVKKPGASVKVSCKASGYTLTSYGISWVRQAPGQGLEWMGWVSFYNGNTNYAQKLQGRGTMTTDPSTSTAYMELRSLRSDDTAVYYCARGYGMDVWGQGTTVTVSSASTKGPSVFPLAPCSRSTSESTAALGCLVKDYFPEPVTVSWNSGALTSGVHTFPAVLQSSGLYSLSSVVTVPSSNFGTQTYTCNVDHKPSNTKVDKTVERKCCVECPPCPAPPVAGPSVFLFPPKPKDTLMISRTPEVTCVVVDVSHEDPEVQFNWYVDGVEVHNAKTKPREEQFNSTFRVVSVLTVVHQDWLNGKEYKCKVSNKGLPAPIEKTISKTKGQPREPQVYTLPPSREEMTKNQVSLTCLVKGFYPSDIAVEWESNGQPENNYKTTPPMLDSDGSFFLYSKLTVDKSRWQQGNVFSCSVMHEALHNHYTQKSLSLSPGK
light: QSALTQPASVSGSPGQSITISCTGTSSDVGGYNSVSWYQQHPGKAPKLMIYEVSNRPSGVSNRFSGSKSGNTASLTISGLQAEDEADYYCNSYTSTSMVFGGGTKLTVLQPKAAPSVTLFPPSSEELQANKATLVCLISDFYPGAVTVAWKADSSPVKAGVETTTPSKQSNNKYAASSYLSLTPEQWKSHRSYSCQVTHEGSTVEKTVAPTECS

Columns and labels:
[1] = molecular target: D374Y PCSK9 binding to LDLR (Homo sapiens, UniProt Q8NBP7, D374Y); test: Large scale receptor ligand blocking screen and functional classification of ABPs; details: functional assays of the screening
Procedure: To screen for the antibodies that block PCSK9 binding to LDLR an assay was developed using the D374Y PCSK9 mutant. […] The following protocol was employed in the receptor ligand blocking screen: Costar 3702 medium binding 384 well plates (Corning Life Sciences) were employed in the screen. The plates were coated with goat anti-LDLR (R&D Cat #AF2148) at 2 μg/ml in 1×PBS/0.05% Azide at a volume of 40 μl/well. The plates were incubated at 4° C. overnight. The plates were then washed using a Titertek plate washer (Titertek, Huntsville, Ala.). A 3-cycle wash was performed. The plates were blocked with 90 μl of 1×PBS/1% milk and incubated approximately 30 minutes at room temperature. The plates were then washed using the Titertek plate washer. A 3-cycle wash was performed. The capture sample was LDLR (R&D, Cat #2148LD/CF), and was added at 0.4 μg/ml in 1×PBS/1% milk/10 mM Ca^2+ at a volume of 40 μl/well. The plates were then incubated for 1 hour and 10 minutes at room temperature. Contemporaneously, 20 ng/ml of biotinylated human D374Y PCSK9 was incubated with 15 micro liters of hybridoma exhaust supernatant in Nunc polypropylene plates and the exhaust supernatant concentration was diluted 1:5. The plates were then pre-incubated for about 1 hour and 30 minutes at room temperature. Next, the plates were washed using the Titertek plate washer operated using a 3-cycle wash. 50 μl/well of the pre-incubated mixture was transferred onto the LDLR coated ELISA plates and incubated for 1 hour at room temperature. To detect LDLR-bound b-PCSK9, 40 μl/well streptavidin HRP at 500 ng/ml in assay diluent was added to the plates. The plates were incubated for 1 hour at room temperature. The plates were again washed using a Titertek plate washer. A 3-cycle wash was performed. Finally, 40 μl/well of One-step TMB (Neogen, Lexington, Ky.) was added to the plate and was quenched with 40 μl/well of 1N hydrochloric acid after 30 minutes at room temperature. OD's were read immediately at 450 nm using a Titertek plate reader.
The receptor ligand assay was then repeated using the mutant enzyme on the 384 member subset of neutralizers identified in the first large scale receptor ligand inhibition assay. The same protocol was employed in the screen of the 384 member blocker subset assay as was done in the large scale receptor ligand blocking screen.
Limiting dilution was used to isolate a manageable number of clones from each line. […] The isolated clones were each expanded in 50-100 ml of hybridoma media and allowed to grow to exhaustion, (i.e., less than about 10% cell viability). The concentration and potency of the antibodies to PCSK9 in the supernatants of those cultures were determined by ELISA and by in vitro functional testing, as described herein.

[2] = test system: wild type (WT) mice (C57BL/6); test: Serum cholesterol and HDL in 13 day study; assay type: in vivo, mouse; details: 10 mg/kg, repeated 13 day study (FIG. 10C)
Excerpt: Male WT mice (C57BL/6 strain, aged 9-10 weeks, 17-27 g) obtained from Jackson Laboratory (Bar Harbor, Me.) were fed a normal chow (Harland-Teklad, Diet 2918) through out the duration of the experiment. […] Naïve mice were also set aside as naïve control group.
Animals were sacrificed and livers were extracted and prepared as in Example 11.
The HDL levels for the animals in Example 13 were also examined.

D374Y PCSK9/LDLR binding = D374Y PCSK9/LDLR binding (Homo sapiens, UniProt Q8NBP7, D374Y); test: Blocking D374Y PCSK9/LDLR binding (Example 9); details: 20 ng/ml biotinylated D374Y PCSK9
Procedure: Clear 384 well plates (Costar) were coated with 2 micrograms/ml of goat anti-LDL receptor antibody (R&D Systems) diluted in buffer A (100 mM sodium cacodylate, pH 7.4). Plates were washed thoroughly with buffer A and then blocked for 2 hours with buffer B (1% milk in buffer A). After washing, plates were incubated for 1.5 hours with 0.4 micrograms/ml of LDL receptor (R&D Systems) diluted in buffer C (buffer B supplemented with 10 mM CaCl2). […] The LDL receptor containing plates were washed and the biotinylated D374Y PCSK9/antibody mixture was transferred to them and incubated for 1 hour at room temperature. Binding of the biotinylated D374Y to the LDL receptor was detected by incubation with streptavidin-HRP (Biosource) at 500 ng/ml in buffer C followed by TMB substrate (KPL). The signal was quenched with 1N HCl and the absorbance read at 450 nm.

[3] = molecular target: D374Y human PCSK9 (HepG2 cells) (Homo sapiens, UniProt Q8NBP7, D374Y); test: Cell LDL uptake assay (Example 10); assay type: cell-based; details: 2 μg/ml D374Y human PCSK9, HepG2 cells
Procedure: Human HepG2 cells were seeded in black, clear bottom 96-well plates (Costar) at a concentration of 5×10^5 cells per well in DMEM medium (Mediatech, Inc) supplemented with 10% FBS and incubated at 37° C. (5% CO2) overnight. To form the PCSK9 and antibody complex, 2 μg/ml of D374Y human PCSK9 was incubated with various concentrations of antibody diluted in uptake buffer (DMEM with 1% FBS) or uptake buffer alone (control) for 1 hour at room temperature. After washing the cells with PBS, the D374Y PCSK9/antibody mixture was transferred to the cells, followed by LDL-BODIPY (Invitrogen) diluted in uptake buffer at a final concentration of 6 μg/ml. After incubation for 3 hours at 37° C. (5% CO2), cells were washed thoroughly with PBS and the cell fluorescence signal was detected by Safire™ (TECAN) at 480-520 nm (excitation) and 520-600 nm (emission).

Molecule	neutralizing ability (blocking PCSK9/LDLR) [1]	other results
B1	weak neutralizers	–
B2	neutralizing	–
B3	non-neutralizing	–
B4	non-neutralizing	–
B5	non-neutralizing	–
B6	–	total serum cholesterol after a single dose [2]: significant and substantial decreases in total serum cholesterol
B7	–	IC50 (D374Y PCSK9/LDLR binding): 0.17 nM; IC50 [3]: 13.3 nM
